Reference: patent US20240182563A1 (GENOME, published 2024)

T1: human CNTN4 antigen expressed on the cell membrane of 293FT cells (human) (UniProt Q8IWV2)
T1 sequence (looked up): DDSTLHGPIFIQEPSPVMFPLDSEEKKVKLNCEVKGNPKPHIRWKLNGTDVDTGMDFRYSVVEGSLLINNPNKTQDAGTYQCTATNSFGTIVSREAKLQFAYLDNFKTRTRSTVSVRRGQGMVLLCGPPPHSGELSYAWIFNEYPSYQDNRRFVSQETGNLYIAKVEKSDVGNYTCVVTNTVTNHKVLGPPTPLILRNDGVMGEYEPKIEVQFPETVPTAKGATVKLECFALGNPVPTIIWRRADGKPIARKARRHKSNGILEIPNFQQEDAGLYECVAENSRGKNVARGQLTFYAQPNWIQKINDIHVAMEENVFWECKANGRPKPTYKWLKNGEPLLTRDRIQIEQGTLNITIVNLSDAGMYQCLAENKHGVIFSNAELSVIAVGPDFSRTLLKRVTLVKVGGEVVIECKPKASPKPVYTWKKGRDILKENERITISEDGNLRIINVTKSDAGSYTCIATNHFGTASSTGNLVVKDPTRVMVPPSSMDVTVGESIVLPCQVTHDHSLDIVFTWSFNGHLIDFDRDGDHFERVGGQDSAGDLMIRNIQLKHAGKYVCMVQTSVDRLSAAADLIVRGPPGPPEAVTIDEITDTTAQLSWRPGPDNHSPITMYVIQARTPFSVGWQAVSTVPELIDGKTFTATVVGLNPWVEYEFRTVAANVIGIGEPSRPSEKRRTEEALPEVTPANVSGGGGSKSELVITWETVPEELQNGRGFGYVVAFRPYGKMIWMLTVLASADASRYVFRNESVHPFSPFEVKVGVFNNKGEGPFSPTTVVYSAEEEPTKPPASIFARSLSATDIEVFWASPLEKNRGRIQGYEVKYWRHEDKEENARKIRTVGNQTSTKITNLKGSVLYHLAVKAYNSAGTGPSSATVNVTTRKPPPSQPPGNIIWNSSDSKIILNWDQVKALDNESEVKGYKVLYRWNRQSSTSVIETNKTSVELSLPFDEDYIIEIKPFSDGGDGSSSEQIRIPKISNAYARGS

T2: mouse CNTN4-rabbit Fc (mouse; rabbit, UniProt Q69Z26 19-1000, limits assumed)
T2 construct: not shown: rabbit Fc
T2 sequence (looked up): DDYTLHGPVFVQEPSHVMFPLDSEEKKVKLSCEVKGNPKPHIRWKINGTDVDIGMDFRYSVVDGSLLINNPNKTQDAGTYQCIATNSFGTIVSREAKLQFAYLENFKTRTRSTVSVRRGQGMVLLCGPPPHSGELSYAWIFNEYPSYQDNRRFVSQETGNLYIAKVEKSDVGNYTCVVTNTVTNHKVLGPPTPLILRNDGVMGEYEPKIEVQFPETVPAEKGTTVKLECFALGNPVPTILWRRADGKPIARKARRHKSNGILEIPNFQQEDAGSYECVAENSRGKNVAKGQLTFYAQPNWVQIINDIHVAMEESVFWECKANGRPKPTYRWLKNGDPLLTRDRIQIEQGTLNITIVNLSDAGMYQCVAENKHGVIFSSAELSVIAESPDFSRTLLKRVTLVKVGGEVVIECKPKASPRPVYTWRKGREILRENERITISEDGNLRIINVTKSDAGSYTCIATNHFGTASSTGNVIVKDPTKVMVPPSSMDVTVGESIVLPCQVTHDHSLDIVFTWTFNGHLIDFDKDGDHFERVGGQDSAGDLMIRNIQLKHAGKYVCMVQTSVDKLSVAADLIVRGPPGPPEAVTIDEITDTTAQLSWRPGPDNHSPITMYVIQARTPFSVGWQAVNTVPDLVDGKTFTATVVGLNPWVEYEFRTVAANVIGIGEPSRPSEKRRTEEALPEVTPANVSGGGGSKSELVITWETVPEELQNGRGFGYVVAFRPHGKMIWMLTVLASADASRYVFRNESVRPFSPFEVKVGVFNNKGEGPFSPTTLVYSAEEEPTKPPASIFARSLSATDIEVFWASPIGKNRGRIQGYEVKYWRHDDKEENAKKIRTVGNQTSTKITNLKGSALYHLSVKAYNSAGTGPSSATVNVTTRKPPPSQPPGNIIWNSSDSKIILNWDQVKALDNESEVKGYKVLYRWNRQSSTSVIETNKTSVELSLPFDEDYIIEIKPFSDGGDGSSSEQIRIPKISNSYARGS

T3: human CNTN4-rabbit Fc (human; rabbit, UniProt Q8IWV2 19-1000, limits assumed)
T3 construct: not shown: rabbit Fc
T3 sequence (looked up): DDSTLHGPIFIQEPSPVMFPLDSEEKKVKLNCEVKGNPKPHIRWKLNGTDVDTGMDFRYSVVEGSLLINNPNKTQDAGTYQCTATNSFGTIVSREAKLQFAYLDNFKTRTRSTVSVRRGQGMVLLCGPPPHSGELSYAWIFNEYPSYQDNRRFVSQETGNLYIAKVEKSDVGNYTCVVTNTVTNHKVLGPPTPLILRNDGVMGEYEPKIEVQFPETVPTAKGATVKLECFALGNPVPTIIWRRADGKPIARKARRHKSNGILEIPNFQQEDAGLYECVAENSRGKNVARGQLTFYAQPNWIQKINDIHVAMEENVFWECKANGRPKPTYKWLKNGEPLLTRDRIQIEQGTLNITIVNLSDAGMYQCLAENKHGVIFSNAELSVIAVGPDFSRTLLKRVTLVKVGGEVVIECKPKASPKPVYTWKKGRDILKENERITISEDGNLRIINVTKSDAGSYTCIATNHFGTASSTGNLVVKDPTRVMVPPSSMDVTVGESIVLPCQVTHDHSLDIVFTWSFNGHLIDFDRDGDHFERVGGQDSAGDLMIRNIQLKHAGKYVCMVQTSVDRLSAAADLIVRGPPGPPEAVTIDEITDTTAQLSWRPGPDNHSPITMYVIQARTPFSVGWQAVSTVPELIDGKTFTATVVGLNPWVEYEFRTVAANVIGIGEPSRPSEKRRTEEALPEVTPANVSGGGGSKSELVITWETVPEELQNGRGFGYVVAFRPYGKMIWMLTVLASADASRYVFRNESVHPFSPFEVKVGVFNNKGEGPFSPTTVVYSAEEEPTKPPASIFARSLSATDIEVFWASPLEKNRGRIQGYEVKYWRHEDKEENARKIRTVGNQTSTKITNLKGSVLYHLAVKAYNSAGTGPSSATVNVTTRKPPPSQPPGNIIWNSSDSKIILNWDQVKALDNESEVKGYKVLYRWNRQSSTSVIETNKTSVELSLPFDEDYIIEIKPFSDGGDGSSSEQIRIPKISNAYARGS


Experiments:
[1] = target: T1, human CNTN4 antigen expressed on the cell membrane of 293FT cells (human); experiment: FACS, 293FT cells transfected with human CNTN4, 40 ug/mL, anti-hCk-PE
mouse CNTN4-rabbit Fc = target: T2, mouse CNTN4-rabbit Fc; experiment: ELISA, plate coated with antigen-rabbit Fc, anti-human kappa-HRP
human CNTN4-rabbit Fc = target: T3, human CNTN4-rabbit Fc; experiment: as above

| Binder | Shift % [1] | EC50 (mouse CNTN4-rabbit Fc) | EC50 (human CNTN4-rabbit Fc) |
| --- | --- | --- | --- |
| anti-CNTN4 scFv-hCk S132 (scFv, part only; not given: linker and kappa constant region, V domains shown, not shown: another chain or arm of the molecule; a dimerising Fc or GST; small tags and cut ends) VL: ALTQPSSVSANPGETVKITCSGGGSSTYYGWYQQKSPGSAPVTVIYNNNNRPSDIPSRFSGSGSGSTGTLTITGVRAEDEAVYYCGGYDGSTDVFGAGTTLTVL VH: AVTLDESGGGLQTPGGALSLVCKASGFTFSSFNMFWVRQAPGKGLEYVAEISGGGGSTWYAPAVKGRATISRDNGQSTVRLQLNNLRAEDTGTYYCAKSADTWSYGAATIDAWGHGTEVIVSS | 16.1% | 720 pM | 1160 pM |
| anti-CNTN4 scFv-hCk S135 (scFv, part only; not given: linker and kappa constant region, V domains shown, not shown: another chain or arm of the molecule; a dimerising Fc or GST; small tags and cut ends) VL: ALTQPSSVSANPGETVKITCSGGGSSSYYGWYQQKSPGSAPVTVIYYNNRPSDIPSRFSGSGSGSTGTLTITGVRAEDEAVYYCGGYDGSTDVFGAGTTLTVL VH: AVTLDESEGGLQTPGGALSLVCKASGFTFSSFNMFWVRQAPGKGLEYVAEISGGGGSTWYAPAVKGRATISRDNGQSTVRLQLNNLRAEDTGTYYCAKSADTWSYGAATIDAWGHGTEVIVSS | 18.2% | 710 pM | 1060 pM |
| anti-CNTN4 scFv-hCk S138 (scFv, part only; not given: linker and kappa constant region, V domains shown, not shown: another chain or arm of the molecule; a dimerising Fc or GST; small tags and cut ends) VL: ALTQPSSVSANPGETVNITCSGGGSYAGSYYYGWYQQKAPGSAPVTVIYDSTNRPSNIPSRFSGSLSGSTNTLTITGVRAEDEAVYYCGGYDGSTDVFGAGTTLTVL VH: AVTLDESEGGLQTPGGALSLVCKASGFTFSSFNMFWVRQAPGKGLEYVAEISGGGGSTWYAPAVKGRATISRDNGQSTVRLQLNNLRAEDTGTYYCAKSADTWSYGAATIDAWGHGTEVIVSS | 15.8% | 1060 pM | 2370 pM |
| anti-CNTN4 scFv-hCk S134 (scFv, part only; not given: linker and kappa constant region, V domains shown, not shown: another chain or arm of the molecule; a dimerising Fc or GST; small tags and cut ends) VL: ALTQPSSVSANPGETVKITCSGGTYSYGNYYYGWYQQKSPGSAPVTVIYNNNNRPSDIPSRFSGSGSGSTGTLTITGVRAEDEAVYYCGGYDGSTDVFGAGTTLTVL VH: AVTLDESEGGLQTPGGALSLVCKASGFTFSSFNMFWVRQAPGKGLEYVAEISGGGGSTWYAPAVKGRATISRDNGQSTVRLQLNNLRAEDTGTYYCAKSADTWSYGAATIDAWGHGTEVIVSS | 18% | 750 pM | 750 pM |
| anti-CNTN4 scFv-hCk S99 (scFv, part only; not given: linker and kappa constant region, V domains shown, not shown: another chain or arm of the molecule; a dimerising Fc or GST; small tags and cut ends) VL: ALTQPSSVSANPGETVKITCSGGASYAGNYYYGWYQQKSPGSAPVTVIYNNNQRPSDIPSRFSGSLSGSTNTLTITGVQADDEAVYFCGSDDSSAGYTGIFGAGTTLTVL VH: AVTLDESGGGLQTPGGALSLVCKASEFTFSGYGMHWVRQAPGKGLEFVAEISNTGSWTGYGAAVKGRATISRDNGQSTVRLQLNNLKADDTATYYCAKVGGRGWCGRSGCADDIDAWGHGTEVIVSS | 20.5% | 3640 pM | 8340 pM |
| anti-CNTN4 scFv-hCk S131 (scFv, part only; not given: linker and kappa constant region, not shown: a dimerising Fc or GST) scFv, part: ALTQPSSVSANLGGTVKITCSGGGSSYYGWYQQKSPGSAPVTLIYQNTNRPSNIPSRFSGSGSGSTGTLTITGVRAEDEAVYYCGGYDGSTDVFGAGTTLTVLAVTLDESEGGLQTPGGALSLVCKASGFTFSSFNMFWVRQAPGKGLEYVAEISGGGGSTWYAPAVKGRATISRDNGQSTVRLQLNNLRAEDTGTYYCAKSADTWSYGAATIDAWGHGTEVIVSS | 16.6% | 560 pM | 740 pM |
| anti-CNTN4 scFv-hCk S137 (scFv, part only; not given: linker and kappa constant region, not shown: a dimerising Fc or GST) scFv, part: ALTQPSSVSANPGETVKITCSGGSSYGWYQQKSPGSAPVTVIYDNTNRPSNIPSRFSGSKSGSTNTLTITGVQAEDEAVYYCGGYDGSTDAFGAGTTLTVLAVTLDESEGGLQTPGGALSLVCKASGFTFSSFNMFWVRQAPGKGLEYVAEISGGGGSTWYAPAVKGRATISRDNGQSTVRLQLNNLRAEDTGTYYCAKSADTWSYGAATIDAWGHGTEVIVSS | 15.3% | 520 pM | 410 pM |
| anti-CNTN4 scFv-hCk S129 (scFv, part only; not given: linker and kappa constant region, not shown: a dimerising Fc or GST) scFv, part: ALTQPSSVSANLGETVKITCSGSSGSYGWYQQKSPGSAPVTLIYDNTNRPSDIPSRFSGSGSGSTGTLTITGVRAEDEAVYYCGGYDGSTDVFGAGTTLTVLAVTLDESEGGLQTPGGALSLVCKASGFTFSSFNMFWVRQAPGKGLEYVAEISGGGGSTWYAPAVKGRATISRDNGQSTVRLQLNNLRAEDTGTYYCAKSADTWSYGAATIDAWGHGTEVIVSS | 16% | 370 pM | 550 pM |
